The test deals with recombinant caspase-3 (E. coli KRX lysate, pTS1k:caspase-3(T/S)). The experiment in a line: cell-based or functional assay.

For the substance HQ:CBS:HT (5x HQ tag:CBS:HaloTag), the INDUCED luminescence, HisLink purification fraction E1 turned out to be 2.95e+06; the INDUCED luminescence, HisLink purification fraction E2 stood at 4.09e+07; the INDUCED luminescence, HisLink purification fraction E3 was 3.29e+06; the INDUCED luminescence, HisLink purification fraction E4 was 216000. The INDUCED luminescence, HisLink purification fraction E5 stood at 48100; the INDUCED luminescence, HisLink purification sample HSS was 1.29e+07; the INDUCED luminescence, HisLink purification sample NSM amounted to 5.82e+06; the INDUCED luminescence, HisLink purification sample WASH is 3.71e+06. Also, the INDUCED luminescence, purified HQ:CBS:HT immobilised on HaloLink plate was determined as 662000; the RESPONSE, HisLink purification fraction E1 came out at 699 fold; the RESPONSE, HisLink purification fraction E2 came to 212 fold; the RESPONSE, HisLink purification fraction E3 came out at 178 fold. Moreover, the RESPONSE, HisLink purification fraction E4 worked out at 191 fold; the RESPONSE, HisLink purification fraction E5 came out at 178 fold; the RESPONSE, HisLink purification sample HSS was 43 fold; the RESPONSE, HisLink purification sample NSM was 33 fold. For the same substance, the RESPONSE, HisLink purification sample WASH worked out at 479 fold and the RESPONSE, purified HQ:CBS:HT immobilised on HaloLink plate came out at 96 fold.

Source of the values: patent EP3467119A1.
